Assay results reported in patent publication US20200199241A1 (Chugai, published 2020).

T1: FcγRIIa type R (human, UniProt P12318 36-217)
T1 construct: SPR analyte; also called FcγRIIaR; FcγRIIa(R)
T1 chain: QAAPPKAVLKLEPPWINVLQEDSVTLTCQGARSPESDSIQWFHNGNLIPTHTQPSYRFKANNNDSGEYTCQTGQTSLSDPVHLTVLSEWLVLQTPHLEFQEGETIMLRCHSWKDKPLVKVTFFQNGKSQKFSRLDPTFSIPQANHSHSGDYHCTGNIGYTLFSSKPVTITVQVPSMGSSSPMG

T2: FcγRIIa type H (human, UniProt P12318 36-217)
T2 construct: SPR analyte; also called FcγRIIaH
T2 sequence: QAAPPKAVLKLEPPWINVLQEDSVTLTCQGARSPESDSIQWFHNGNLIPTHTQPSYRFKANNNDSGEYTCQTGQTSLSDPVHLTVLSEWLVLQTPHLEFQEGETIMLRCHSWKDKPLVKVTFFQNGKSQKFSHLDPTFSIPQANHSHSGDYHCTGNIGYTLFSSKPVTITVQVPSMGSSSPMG

T3: FcγRIIb (human, UniProt P31994 43-217, limits assumed)
T3 construct: SPR analyte; also called FcγIIB; CD32
T3 sequence: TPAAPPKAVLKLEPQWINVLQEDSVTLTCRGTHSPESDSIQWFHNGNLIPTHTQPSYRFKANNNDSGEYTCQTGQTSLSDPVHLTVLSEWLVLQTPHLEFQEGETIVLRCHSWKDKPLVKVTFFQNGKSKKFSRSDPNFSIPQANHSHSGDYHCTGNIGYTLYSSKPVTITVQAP


What was measured:
FcγRIIa type R [1] = target: T1, FcγRIIa type R; test: ratio of SPR KDs; stronger receptor here FcγRIIaR; reference IL6R-B3/IL6R-L (FcγRIIaH)
FcγRIa = target: T4, FcγRIa (human, UniProt P12314 16-292, limits assumed); test: SPR (Biacore), antibody captured, FcγR analyte
T4 construct: SPR analyte; also called CD64
T4 sequence (P12314 16-292 limits assumed): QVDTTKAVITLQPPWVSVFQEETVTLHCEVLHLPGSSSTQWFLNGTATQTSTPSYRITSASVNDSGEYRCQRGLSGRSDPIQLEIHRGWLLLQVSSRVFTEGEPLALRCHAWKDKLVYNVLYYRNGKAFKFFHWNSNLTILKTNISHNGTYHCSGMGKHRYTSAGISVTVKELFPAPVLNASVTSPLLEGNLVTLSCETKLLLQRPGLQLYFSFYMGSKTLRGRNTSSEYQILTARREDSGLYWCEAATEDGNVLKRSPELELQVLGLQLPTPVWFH

FcγRIIa type H = target: T2, FcγRIIa type H; test: SPR (Biacore), antibody captured, FcγR analyte
FcγRIIa type R [2] = target: T1, FcγRIIa type R; test: SPR (Biacore), antibody captured, FcγR analyte
FcγRIIIa type V = target: T5, FcγRIIIa type V (human, UniProt P08637 17-208, limits assumed); test: SPR (Biacore), antibody captured, FcγR analyte
T5 construct: SPR analyte; allotype V158 was used here; also called FcγRIIIaV; FcγRIIIa(V)
T5 sequence (P08637 other isoform, or with tags, fused parts or gaps limits assumed): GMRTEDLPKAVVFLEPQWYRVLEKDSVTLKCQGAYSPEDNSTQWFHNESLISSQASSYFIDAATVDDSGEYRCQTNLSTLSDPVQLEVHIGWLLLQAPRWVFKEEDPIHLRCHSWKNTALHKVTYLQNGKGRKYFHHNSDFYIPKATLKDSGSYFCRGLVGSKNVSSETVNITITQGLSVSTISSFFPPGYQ

FcγRIIb [3] = target: T3, FcγRIIb; test: SPR (Biacore), antibody captured, FcγR analyte
FcγRIIb [4] = target: T3, FcγRIIb; test: ratio of SPR KDs; reference IL6R-B3/IL6R-L
FcγRIIb [5] = target: T3, FcγRIIb; test: ratio of SPR KDs: KD for FcγRIIaH over KD for FcγRIIb
From the text: (§1) Furthermore, KD(IIaR)/KD(IIb) and KD(IIaH)/KD(IIb) in the table respectively represent the value obtained by dividing the KD value of each variant for FcγRIIaR by the KD value of each variant for FcγRIIb, and the value obtained by dividing the KD value of each variant for FcγRIIaH by the KD value of each variant for FcγRIIb.

FcγRIIb [6] = target: T3, FcγRIIb; test: ratio of SPR KDs: KD for FcγRIIaR over KD for FcγRIIb
From the text: as §1

KD of the stronger of FcγRIIaR/FcγRIIaH binding of the variant / that of the parent polypeptide (FcγRIIa type R [1]) | Kd (FcγRIa) [nM] | Kd (FcγRIIa type H) [µM] | Kd (FcγRIIa type R [2]) [nM] | Kd (FcγRIIIa type V) [µM] | Kd (FcγRIIb [3]) [nM] | KD(IIb) of the parent polypeptide/KD(IIb) of altered polypeptide (FcγRIIb [4]) | KD(IIaH)/KD(IIb) (FcγRIIb [5]) | KD(IIaR)/KD(IIb) (FcγRIIb [6]) | Binder
19.9 | 11 | 40 | 15000 | 71 | 1200 | 2.5 | 33.9 | 13 | IL6R-BF648/IL6R-L (antibody, human IgG1) heavy: not shown light: DIQMTQSPSSLSASVGDRVTITCRASQDISSYLNWYQQKPGKAPKLLIYYTSRLHSGVPSRFSGSGSGTDFTFTISSLQPEDIATYYCQQGNTLPYTFGQGTKVEIK
1 | 73 | 5.6 | 810 |  | 41 | 75 |  |  | IL6R-BP152/IL6R-L (antibody, human IgG1) heavy: QVQLQESGPGLVKPSETLSLTCAVSGHSISHDHAWSWVRQPPGEGLEWIGFISYSGITNYNPSLQGRVTISRDNSKNTLYLQMNSLRAEDTAVYYCARSLARTTAMDYWGEGTLVTVSSASTKGPSVFPLAPSSKSTSGGTAALGCLVKDYFPEPVTVSWNSGALTSGVHTFPAVLQSSGLYSLSSVVTVPSSSLGTQTYICNVNHKPSNTKVDKKVEPKSCDKTHTCPPCPAPDYLGDDSVFLFPPKPKDTLMISRTPEVTCVVVDVSHEDPEVKFNWYVDGVEVHNAKTKPREEQDNSTYRVVSVLTVLHQDWLNGKEYKCKVSNAALPRPIEKTISKAKGQPREPQVYTLPPSRDELTKNQVSLTCLVKGFYPSDIAVEWESNGQPENNYKTTPPVLDSDGSFFLYSKLTVDKSRWQQGNVFSCSVMHEALHNHYTQESLSLSP light: DIQMTQSPSSLSASVGDRVTITCRASQDISSYLNWYQQKPGKAPKLLIYYTSRLHSGVPSRFSGSGSGTDFTFTISSLQPEDIATYYCQQGNTLPYTFGQGTKVEIK
1.2 | 43 | 14 | 930 |  | 51 | 60.1 |  |  | IL6R-BP178/IL6R-L (antibody, human IgG1) heavy: QVQLQESGPGLVKPSETLSLTCAVSGHSISHDHAWSWVRQPPGEGLEWIGFISYSGITNYNPSLQGRVTISRDNSKNTLYLQMNSLRAEDTAVYYCARSLARTTAMDYWGEGTLVTVSSASTKGPSVFPLAPSSKSTSGGTAALGCLVKDYFPEPVTVSWNSGALTSGVHTFPAVLQSSGLYSLSSVVTVPSSSLGTQTYICNVNHKPSNTKVDKKVEPKSCDKTHTCPPCPAPDLLGDDSVFLFPPKPKDTLMISRTPEVTCVVVDVSHEDGEVKFNWYVDGVEVHNAKTKPREEQYNSTYRVVSVLTVLHQDWLNGKEYKCKVSNKALPKPIEKTISKAKGQPREPQVYTLPPSRDELTKNQVSLTCLVKGFYPSDIAVEWESNGQPENNYKTTPPVLDSDGSFFLYSKLTVDKSRWQQGNVFSCSVMHEALHNHYTQESLSLSP light: DIQMTQSPSSLSASVGDRVTITCRASQDISSYLNWYQQKPGKAPKLLIYYTSRLHSGVPSRFSGSGSGTDFTFTISSLQPEDIATYYCQQGNTLPYTFGQGTKVEIK
